Publication PMC10786891, “Massively parallel profiling of RNA-targeting CRISPR-Cas13d”

T1: EsCas13d, nuclease-dead (Eubacterium siraeum, UniProt B0MS50, R295A;H300A;R849A;H854A)
T1 sequence: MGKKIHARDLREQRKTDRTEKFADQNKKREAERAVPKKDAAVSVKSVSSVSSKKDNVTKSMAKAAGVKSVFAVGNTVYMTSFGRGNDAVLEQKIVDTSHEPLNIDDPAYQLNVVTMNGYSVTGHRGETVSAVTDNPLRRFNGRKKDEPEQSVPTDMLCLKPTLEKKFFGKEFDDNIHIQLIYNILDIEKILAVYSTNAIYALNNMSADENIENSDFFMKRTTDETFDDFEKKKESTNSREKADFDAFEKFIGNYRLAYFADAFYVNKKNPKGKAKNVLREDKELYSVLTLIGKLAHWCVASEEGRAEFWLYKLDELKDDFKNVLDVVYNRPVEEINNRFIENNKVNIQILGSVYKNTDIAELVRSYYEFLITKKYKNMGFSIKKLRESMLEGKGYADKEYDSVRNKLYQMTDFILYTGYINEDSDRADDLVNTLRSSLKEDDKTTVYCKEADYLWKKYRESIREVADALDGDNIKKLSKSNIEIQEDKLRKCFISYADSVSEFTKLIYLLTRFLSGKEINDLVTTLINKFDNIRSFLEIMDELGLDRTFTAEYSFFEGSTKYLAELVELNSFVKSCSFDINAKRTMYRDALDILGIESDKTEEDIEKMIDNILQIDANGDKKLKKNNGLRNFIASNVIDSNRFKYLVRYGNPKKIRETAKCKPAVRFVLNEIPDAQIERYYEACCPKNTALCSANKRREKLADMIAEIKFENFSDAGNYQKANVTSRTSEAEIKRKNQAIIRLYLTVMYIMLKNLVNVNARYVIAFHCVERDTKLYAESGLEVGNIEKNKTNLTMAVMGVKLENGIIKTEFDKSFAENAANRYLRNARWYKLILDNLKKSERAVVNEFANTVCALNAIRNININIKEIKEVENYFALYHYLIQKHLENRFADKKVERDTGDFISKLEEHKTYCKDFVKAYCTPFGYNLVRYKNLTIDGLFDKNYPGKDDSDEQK

B1: target 1 MT 5'PFS GUC 3'PFS CAU (mixed)
RNA 1: CACCCGUGCAAAAAUGCAGGGGUCUAAAACUGAGCGGAUAACCUCUCUAUGG
RNA 2: GGGAAUGGAUCCACAUCUACGAAUUCGUCCCAUAGAGAGGUUAUCCGCUCACAUAGAUCGGAAGAGCACACGU
B2: target 1 MT 5'PFS GCG 3'PFS AAC (mixed)
RNA 1: CACCCGUGCAAAAAUGCAGGGGUCUAAAACUGAGCGGAUAACCUCUCUAUGG
RNA 2: GGGAAUGGAUCCACAUCUACGAAUUCGCGCCAUAGAGAGGUUAUCCGCUCAAACAGAUCGGAAGAGCACACGU
B3: target 1 MT 5'PFS GCG 3'PFS AAG (mixed)
RNA 1: CACCCGUGCAAAAAUGCAGGGGUCUAAAACUGAGCGGAUAACCUCUCUAUGG
RNA 2: GGGAAUGGAUCCACAUCUACGAAUUCGCGCCAUAGAGAGGUUAUCCGCUCAAAGAGAUCGGAAGAGCACACGU
B4: target 1 MT 5'PFS AGA 3'PFS CAA (mixed)
RNA 1: CACCCGUGCAAAAAUGCAGGGGUCUAAAACUGAGCGGAUAACCUCUCUAUGG
RNA 2: GGGAAUGGAUCCACAUCUACGAAUUCAGACCAUAGAGAGGUUAUCCGCUCACAAAGAUCGGAAGAGCACACGU
B5: target 1 MT 5'PFS UUG 3'PFS AGU (mixed)
RNA 1: CACCCGUGCAAAAAUGCAGGGGUCUAAAACUGAGCGGAUAACCUCUCUAUGG
RNA 2: GGGAAUGGAUCCACAUCUACGAAUUCUUGCCAUAGAGAGGUUAUCCGCUCAAGUAGAUCGGAAGAGCACACGU
B6: target 1 MT 5'PFS AGA 3'PFS CAC (mixed)
RNA 1: CACCCGUGCAAAAAUGCAGGGGUCUAAAACUGAGCGGAUAACCUCUCUAUGG
RNA 2: GGGAAUGGAUCCACAUCUACGAAUUCAGACCAUAGAGAGGUUAUCCGCUCACACAGAUCGGAAGAGCACACGU
B7: target 1 MT 5'PFS ACG 3'PFS ACU (mixed)
RNA 1: CACCCGUGCAAAAAUGCAGGGGUCUAAAACUGAGCGGAUAACCUCUCUAUGG
RNA 2: GGGAAUGGAUCCACAUCUACGAAUUCACGCCAUAGAGAGGUUAUCCGCUCAACUAGAUCGGAAGAGCACACGU
B8: target 1 MT 5'PFS ACA 3'PFS AAG (mixed)
RNA 1: CACCCGUGCAAAAAUGCAGGGGUCUAAAACUGAGCGGAUAACCUCUCUAUGG
RNA 2: GGGAAUGGAUCCACAUCUACGAAUUCACACCAUAGAGAGGUUAUCCGCUCAAAGAGAUCGGAAGAGCACACGU
B9: target 1 MT 5'PFS ACG 3'PFS ACA (mixed)
RNA 1: CACCCGUGCAAAAAUGCAGGGGUCUAAAACUGAGCGGAUAACCUCUCUAUGG
RNA 2: GGGAAUGGAUCCACAUCUACGAAUUCACGCCAUAGAGAGGUUAUCCGCUCAACAAGAUCGGAAGAGCACACGU
B10: target 1 MT 5'PFS CUG 3'PFS UUG (mixed)
RNA 1: CACCCGUGCAAAAAUGCAGGGGUCUAAAACUGAGCGGAUAACCUCUCUAUGG
RNA 2: GGGAAUGGAUCCACAUCUACGAAUUCCUGCCAUAGAGAGGUUAUCCGCUCAUUGAGAUCGGAAGAGCACACGU
B11: target 1 MT 5'PFS UCA 3'PFS UCC (mixed)
RNA 1: CACCCGUGCAAAAAUGCAGGGGUCUAAAACUGAGCGGAUAACCUCUCUAUGG
RNA 2: GGGAAUGGAUCCACAUCUACGAAUUCUCACCAUAGAGAGGUUAUCCGCUCAUCCAGAUCGGAAGAGCACACGU
B12: target 1 MT 5'PFS UCA 3'PFS UCG (mixed)
RNA 1: CACCCGUGCAAAAAUGCAGGGGUCUAAAACUGAGCGGAUAACCUCUCUAUGG
RNA 2: GGGAAUGGAUCCACAUCUACGAAUUCUCACCAUAGAGAGGUUAUCCGCUCAUCGAGAUCGGAAGAGCACACGU
B13: target 1 MT 5'PFS ACU 3'PFS AAA (mixed)
RNA 1: CACCCGUGCAAAAAUGCAGGGGUCUAAAACUGAGCGGAUAACCUCUCUAUGG
RNA 2: GGGAAUGGAUCCACAUCUACGAAUUCACUCCAUAGAGAGGUUAUCCGCUCAAAAAGAUCGGAAGAGCACACGU
B14: target 1 MT 5'PFS GUC 3'PFS CAG (mixed)
RNA 1: CACCCGUGCAAAAAUGCAGGGGUCUAAAACUGAGCGGAUAACCUCUCUAUGG
RNA 2: GGGAAUGGAUCCACAUCUACGAAUUCGUCCCAUAGAGAGGUUAUCCGCUCACAGAGAUCGGAAGAGCACACGU
B15: target 1 MT 5'PFS GCG 3'PFS AAA (mixed)
RNA 1: CACCCGUGCAAAAAUGCAGGGGUCUAAAACUGAGCGGAUAACCUCUCUAUGG
RNA 2: GGGAAUGGAUCCACAUCUACGAAUUCGCGCCAUAGAGAGGUUAUCCGCUCAAAAAGAUCGGAAGAGCACACGU
B16: target 1 insU 3' of 21,insC 3' of 3 (mixed)
RNA 1: CACCCGUGCAAAAAUGCAGGGGUCUAAAACUGAGCGGAUAACCUCUCUAUGG
RNA 2: GGGAAUGGAUCCACAUCUACGAAUUCGUACCUAUAGAGAGGUUAUCCGCUCCACCGAGAUCGGAAGAGCACACGU
B17: target 1 MT 5'PFS GUU 3'PFS ACC (mixed)
RNA 1: CACCCGUGCAAAAAUGCAGGGGUCUAAAACUGAGCGGAUAACCUCUCUAUGG
RNA 2: GGGAAUGGAUCCACAUCUACGAAUUCGUUCCAUAGAGAGGUUAUCCGCUCAACCAGAUCGGAAGAGCACACGU
B18: target 1 MT 5'PFS CCC 3'PFS UUG (mixed)
RNA 1: CACCCGUGCAAAAAUGCAGGGGUCUAAAACUGAGCGGAUAACCUCUCUAUGG
RNA 2: GGGAAUGGAUCCACAUCUACGAAUUCCCCCCAUAGAGAGGUUAUCCGCUCAUUGAGAUCGGAAGAGCACACGU
B19: target 1 MT 5'PFS CCC 3'PFS UUC (mixed)
RNA 1: CACCCGUGCAAAAAUGCAGGGGUCUAAAACUGAGCGGAUAACCUCUCUAUGG
RNA 2: GGGAAUGGAUCCACAUCUACGAAUUCCCCCCAUAGAGAGGUUAUCCGCUCAUUCAGAUCGGAAGAGCACACGU
B20: target 1 MT 5'PFS CAA 3'PFS CAU (mixed)
RNA 1: CACCCGUGCAAAAAUGCAGGGGUCUAAAACUGAGCGGAUAACCUCUCUAUGG
RNA 2: GGGAAUGGAUCCACAUCUACGAAUUCCAACCAUAGAGAGGUUAUCCGCUCACAUAGAUCGGAAGAGCACACGU
B21: target 1 MT 5'PFS ACU 3'PFS AAU (mixed)
RNA 1: CACCCGUGCAAAAAUGCAGGGGUCUAAAACUGAGCGGAUAACCUCUCUAUGG
RNA 2: GGGAAUGGAUCCACAUCUACGAAUUCACUCCAUAGAGAGGUUAUCCGCUCAAAUAGAUCGGAAGAGCACACGU
B22: target 1 MT 5'PFS CCC 3'PFS UUU (mixed)
RNA 1: CACCCGUGCAAAAAUGCAGGGGUCUAAAACUGAGCGGAUAACCUCUCUAUGG
RNA 2: GGGAAUGGAUCCACAUCUACGAAUUCCCCCCAUAGAGAGGUUAUCCGCUCAUUUAGAUCGGAAGAGCACACGU
B23: target 1 U11C,G17U (mixed)
RNA 1: CACCCGUGCAAAAAUGCAGGGGUCUAAAACUGAGCGGAUAACCUCUCUAUGG
RNA 2: GGGAAUGGAUCCACAUCUACGAAUUCGUACCAUAUAGAGGCUAUCCGCUCACCGAGAUCGGAAGAGCACACGU
B24: target 1 MT 5'PFS UUG 3'PFS AGA (mixed)
RNA 1: CACCCGUGCAAAAAUGCAGGGGUCUAAAACUGAGCGGAUAACCUCUCUAUGG
RNA 2: GGGAAUGGAUCCACAUCUACGAAUUCUUGCCAUAGAGAGGUUAUCCGCUCAAGAAGAUCGGAAGAGCACACGU

target: T1, EsCas13d, nuclease-dead; assay: crRNA (strand 1, pre-loaded); Mg2+; 40 mM Tris-HCl pH 7.5, 150 mM NaCl, 6 mM MgCl2, 1 mM DTT, 0.1% Tween-20, 0.2 mg/ml BSA; 25 C; 10 min per concentration, then washed; conditions: tags: His6-TwinStrep-SUMO cleaved; N-terminal SNAP kept (SNAP-Surface 488); label: 3' end held by stalled T7 RNA polymerase

B1 and B2 are within error of each other in Kd: 24.5 ± 9 nM for the first, 32 ± 15 nM for the second.

B3 and B4 are within 1.5-fold of each other in Kd: 25 ± 7 nM for the first, ~37 nM for the second.

B5 and B6 are within error of each other in Kd: 84 ± 33 nM for the first, ~110 nM for the second.

B7 and B8 are within error of each other in Kd: 10.4 ± 3.5 nM for the first, 18 ± 6 nM for the second.

Going from B9 to B10, the Kd falls from 25 ± 8 nM to 4.45 ± 0.6 nM (5.6-fold).

B11 and B12 are within error of each other in Kd: 12.5 ± 4.5 nM for the first, 31.5 ± 14.5 nM for the second.

Going from B13 to B14, the Kd falls from ~75.5 nM to ~31.5 nM (2.4-fold).

Going from B15 to B16, the Kd falls from ~37 nM to 22.7 ± 1.4 nM (1.6-fold).

Compared with B17, B18 is 1.5-fold lower in Kd: 17.6 ± 3.3 nM for the first, ~11.5 nM for the second.

Going from B19 to B20, the Kd rises from ~15 nM to 32.5 ± 9.5 nM (2.2-fold).

First: B21
Second: B22
The Kd of the first is 6.2-fold higher: ~60 nM for the first, 9.7 ± 4.5 nM for the second. The second binds more tightly here.

B23 and B24 are within error of each other in Kd: 65 ± 27 nM for the first, 90 ± 40 nM for the second.
